Assay in all cases: purified protein
What all share (format): biochemical, Arabidopsis thaliana

Substrate in data set [1]: N[C@@H](Cc1ccc(O)cc1)C(=O)O
The note with it: 0.2 mM PLP, 100 mM HEPES pH 8.0, 30 °C.

Substrate in data set [2]: N[C@@H](Cc1c[nH]c2ccccc12)C(=O)O
The note with it: 0.2 mM PLP, 100 mM HEPES pH 8.0, 30 °C.

Substrate in data set [3]: N[C@@H](Cc1ccccc1)C(=O)O
To be noted: 0.2 mM PLP, 100 mM HEPES pH 8.0, 30 °C.

Substrate in data set [4]: N[C@@H](Cc1c[nH]cn1)C(=O)O
The note with it: 20 mM alpha-ketoglutarate, 0.2 mM PLP, 100 mM HEPES pH 8.0, 30 °C.

B1: AtTAR1 (Arabidopsis thaliana) (protein)
chain: MMVGCENSKKSDSGSNEDKSLSDDIINLDQGDPTAFQEYWMKKKDRCTVVIPAWDLMSYFSDTKNVCWFLEPELEKAIKALHGAIGNAATEERYIVVGTGSSQLCQAALFALSSLSEVKPVSIVAAVPYYSTYVEEASYLQSTLYKWEGDARTFDKKGPYIELVTSPNNPDGIMREPVVNRREGGKVIHDLAYYWPHYTPITRRQDHDLMLFTFSKITGHAGSRIGWALVKDIEVAKKMVHYLTINSIGVSKESQTRATTILNELTKTCRTQSESFFEYGYEKMKSRWERLREVVESGDAFTLPNYPQDFCNFFGKTLSTSPAFAWLGYKEERDLGSLLKEKKVLTRGGDRCGCNKRYVRVSMLSRDDDFDVSLQRLATIKDLKCVEP
Usually Km stands for the concentration of substrate that gives half-maximal velocity. As a reminder, the kcat is the maximal rate divided by the concentration of active sites. Regarding B1, the Michaelis constant (Km) is listed as 1 ± 3 mM in the data set “purified protein [1]” (20 mM alpha-ketoglutarate), 0.07 ± 0.02 mM in “purified protein [2]” (20 mM alpha-ketoglutarate), 2.6 ± 0.3 mM in the data set “purified protein [3]” (20 mM alpha-ketoglutarate) and 30 ± 6 mM in the data set “purified protein [4]”. For the same protein, the turnover number (kcat) in “purified protein [1]” (20 mM alpha-ketoglutarate) was found to be 4.0 ± 0.3 s⁻¹; in “purified protein [2]” (20 mM alpha-ketoglutarate), 4.5 ± 0.2 s⁻¹; in “purified protein [3]” (20 mM alpha-ketoglutarate), 5.0 ± 0.2 s⁻¹; in “purified protein [4]”, 1.8 ± 0.1 s⁻¹.

B2: AtTAA1 (Arabidopsis thaliana) (protein)
chain: MVKLENSRKPEKISNKNIPMSDFVVNLDHGDPTAYEEYWRKMGDRCTVTIRGCDLMSYFSDMTNLCWFLEPELEDAIKDLHGVVGNAATEDRYIVVGTGSTQLCQAAVHALSSLARSQPVSVVAAAPFYSTYVEETTYVRSGMYKWEGDAWGFDKKGPYIELVTSPNNPDGTIRETVVNRPDDDEAKVIHDFAYYWPHYTPITRRQDHDIMLFTFSKITGHAGSRIGWALVKDKEVAKKMVEYIIVNSIGVSKESQVRTAKILNVLKETCKSESESENFFKYGREMMKNRWEKLREVVKESDAFTLPKYPEAFCNYFGKSLESYPAFAWLGTKEETDLVSELRRHKVMSRAGERCGSDKKHVRVSMLSREDVFNVFLERLANMKLIKSIDL
With B2, the Km in the data set “purified protein [1]” (20 mM pyruvate) was 8 ± 3 mM; in “purified protein [2]” (20 mM pyruvate), 1.2 ± 0.2 mM; in “purified protein [3]” (20 mM pyruvate), 13 ± 3 mM; in “purified protein [4]”, 11 ± 2 mM. Also, the kcat is 13.2 ± 0.3 s⁻¹ in the data set “purified protein [1]” (20 mM pyruvate), 4.2 ± 0.2 s⁻¹ in “purified protein [2]” (20 mM pyruvate), 2.0 ± 0.3 s⁻¹ in “purified protein [3]” (20 mM pyruvate) and 0.6 ± 0.1 s⁻¹ in “purified protein [4]”.

Source of the values: publication PMC9957770, “Mass spectrometry imaging–based assays for aminotransferase activity reveal a broad substrate spectrum for a previously uncharacterized enzyme” (The Journal of Biological Chemistry, 2023).
